# Measurements published in patent US20220220218A1 (JIANGSU HENGRUI MEDICINE, published 2022).
# Positions count from the first letter of the chain named.
# T1: human CD73 on tumor cell line MDA-MB-231 that highly expresses human CD73 (human, UniProt P21589 27-549)
# T1 construct: whole, on cells; Cells were fixed on the plate for the cell ELISA and live for the enzyme assay; also called MDA-MB-231 cells
# T1 sequence (looked up): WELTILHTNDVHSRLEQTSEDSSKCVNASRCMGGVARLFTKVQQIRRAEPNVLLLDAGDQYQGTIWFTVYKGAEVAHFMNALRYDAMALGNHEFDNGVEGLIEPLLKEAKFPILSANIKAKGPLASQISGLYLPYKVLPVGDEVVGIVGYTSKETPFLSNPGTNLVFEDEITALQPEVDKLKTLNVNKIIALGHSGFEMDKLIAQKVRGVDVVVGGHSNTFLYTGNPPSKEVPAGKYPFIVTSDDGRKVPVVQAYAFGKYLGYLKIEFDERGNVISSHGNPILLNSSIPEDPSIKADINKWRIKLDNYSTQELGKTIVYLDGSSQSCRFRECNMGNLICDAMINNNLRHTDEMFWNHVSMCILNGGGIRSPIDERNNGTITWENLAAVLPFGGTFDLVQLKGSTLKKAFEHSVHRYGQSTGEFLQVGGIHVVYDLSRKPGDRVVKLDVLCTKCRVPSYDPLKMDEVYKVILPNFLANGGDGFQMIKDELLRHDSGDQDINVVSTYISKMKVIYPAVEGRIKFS
# B1: Hab108.64 (antibody, human IgG1, kappa, V domains shown)
# VH: EVTLKQSGPGLVKPTETLTLTCTVSGFSLSSYGIQWVRQPPGKGLEWLGVIWSGGSADYNAAFISRLTISKDTSKSQVVLTMTNMDPVDTATYYCAGQYGSVWGQGTLVTVSS
# VL: DIQMTQSPSSLSASVGDRVTITCRASQDIGDRLNWLQQKPGGAIKRLIYATSSLDSGVPKRFSGSGSGTEYTLTISSLQPEDFATYYCLQYAGSWTFGGGTKVEIKR
# notes: also called humanized antibody of mab108
# B2: CPX006 (antibody CPX-006 disclosed in patent application WO2018013611) (antibody, V domains shown)
# VH: QVQLVQSGAEVEKPGASVKVSCKASGYTFTSYWITWVRQAPGQGLEWMGDIYPGSGNTNYNEKFKTRVTITADKSTSTAYMELSSLRSEDTAVYYCAKEGGLTTEDYALDYWGQGTLVTVSS
# VL: EIVLTQSPATLSLSPGERATLSCRASKNVSTSGYSYMHWYQQKPGQAPRLLIYLASNLESGIPPRFSGSGYGTDFTLTINNIESEDAAYYFCQHSRELPFTFGQGTKVEIKR
# B3: Hab110.21 (antibody, human IgG1, kappa, V domains shown)
# VH: EVQLVQSGAEVKKPGASVKVSCKASGYTFTSYTMHWVRQAPGQRLEWMGYINPNSFYIEYNQKFKDRVTITRDTSASTAYMELSSLRSEDTAVYYCARGDYDLFYDMDNWGQGTTVTVSS
# VL: DIQMTQSPSSLSASVGDRVTITCRASQDIGNSLNWLQQKPGKAIKRLIYATFRLDSGVPSRFSGSRSGTEYTLTISSLQPEDFATYYCQQYASFPWTFGGGTKVEIKR
# notes: also called humanized antibody of mab110
# B4: Hab127.31d (antibody, human IgG1, kappa, V domains shown)
# VH: EVQLVQSGAEVKKPGASVKVSCKASGYTFTAYFMNWVRQAPGQGLEWMGRIYHNKGDTFYSQKFKGRVTMTVDKSTSTVYMELSSLRSEDTAVYYCATSYVGDWGQGTTVTVSS
# VL: B3 VL with N31D, K42G, I44L, F52S, R53S, R66G, Q89L
# notes: also called humanized antibody of mab127
# Target: T1, human CD73 on tumor cell line …
# Assay: cell ELISA on fixed MDA-MB-231 cells
# Description: The MDA-MB-231 cells were directly coated onto a 96-well microtiter plate. The signal strength after the addition of the antibody was used to determine the binding activity of the antibody to MDA-MB-231 cells. The specific experimental procedures were as follows:
# MDA-MB-231 cells (ATCC, Cat No HTB-26) were seeded in the 96-well plate (Corning, Cat No. CLS3599-100EA) at a density of 6×10⁵/ml, 100 μl/well, and cultured overnight. The supernatant was discarded, the plate was washed with PBS for three times, 100 μl/well of cell immune fixed solution (Beyotime, Cat No. P0098) was added and fixed for half an hour at room temperature, and the plate washed with PBS for four times. The liquid was discarded, 250 μl/well blocking solution (5% skim milk diluted in PBS) was added, and incubated in an incubator at 37° C. for 3 hours. After the blocking was finished, the blocking solution was discarded, the plate was washed for 5 times with PBST buffer, 50 μl/well of various concentrations of each of the test antibodies were added, and incubated in an incubator at 37° C. for 1 hour. After the incubation was finished, the plate was washed for 5 times with PBST, 50 μl/well of HRP-labeled goat anti-mouse secondary antibody (Jackson Immuno Research, Cat No. 115-035-003) or goat anti-human secondary antibody (Jackson Immuno Research, Cat No. 109-035-003) diluted with sample diluent was added, and incubated at 37° C. for 1 hour. The plate was washed for 5 times with PBST, 50 μl/well of TMB chromogenic substrate (KPL, Cat No. 52-00-03) was added, incubated at room temperature for 5-15 min, and 50 μl/well of 1M H₂SO₄ was added to stop the reaction. The absorbance value was read by a microplate reader (Molecular Devices, VERSA max) at a wavelength of 450 nm, and the data was analyzed with GraphPad Prism 5. The binding of anti-CD73 antibody to MDA-MB-231 cells over-expressing CD73 was calculated as EC50 value.
row,EC50,Binder
1,0.062 nM,B1
2,0.433 nM,B2
3,0.056 nM,B3
4,0.072 nM,B4
